The record followed here is article PMC9173642 (PLoS ONE, 2022).

B8: FLrArc-7A, full-length rat Arc with residues 113-119 mutated to Ala (natural protein, UniProt Q63053 1-396, looked up)
chain: MELDHMTTGGLHAYPAPRGGPAAKPNVILQIGKCRAEMLEHVRRTHRHLLTEVSKQVERELKGLHRSVGKLENNLDGYVPTGDSQRWKKSIKACLCRCQETIANLERWVKREAAAAAAAFYRLERWADRLESMGGKYPVGSEPARHTVSVGVGGPEPYCQEADGYDYTVSPYAITPPPAAGELPEQESVGAQQYQSWVPGEDGQPSPGVDTQIFEDPREFLSHLEEYLRQVGGSEEYWLSQIQNHMNGPAKKWWEFKQGSVKNWVEFKKEFLQYSEGTLSREAIQRELDLPQKQGEPLDQFLWRKRDLYQTLYVDAEEEEIIQYVVGTLQPKFKRFLRHPLPKTLEQLIQRGMEVQDGLEQAAEPSVTPLPTEDETEALTPALTSESVASDRTQPE
notes: Expressed from pHMGWA as His6-MBP fusion; Dimer by SAXS; also called poly-Ala rArc mutant; FLArc-7A; source: E. coli BL21(DE3)-RIPL, purified (details in S1 Protocol)

Data set [1] concerns the molecule itself. As to the kind of experiment: SEC; analytical SEC; 2 nmol FLhArc (capsid-containing) with 1.5-fold molar excess of Nb; Superdex 200 Increase 10/300 GL; PBS; fractions on SDS-PAGE. (In gel filtration, larger molecules generally elute earlier.)
The target in data set [2] is T1, human Arc C-terminal domain (hArc-CTD) (human, UniProt Q7LC44).
T1 construct: His tag with a linker holding a TEV site; kept in the pull-down; not shown: His6, N-terminal, kept
Briefly: SEC-SAXS; hArc-CTD alone and with Nb, BM29 beamline (ESRF), HPLC mode. To be noted: both partners purified.

The target in data set [3] is B8. Briefly: ITC; 2 mM Stg peptide injected into 198 μM FLrArc-7A; 20 mM Tris-HCl pH 7.4, 150 mM NaCl; 1:1 binding model. The note with it: both partners purified. In general terms: ITC needs no label: the signal is the heat of the interaction.
Data set [4] deals with FLrArc-7A, full-length rat Arc with residues 113-119 mutated to Ala (rat, UniProt Q63053, 113-119 MHVWREV to poly-Ala).
Data set [5] concerns the molecule itself. Briefly: SEC-SAXS; FLrArc-7A alone and with Nb, SWING beamline, HPLC mode; 20 mM HEPES, 150 mM NaCl, 0.5 mM TCEP, pH 7.5 (rArc+H11 in 20 mM Tris, 150 mM NaCl, pH 7.4).
Data set [6] deals with the molecule itself. Briefly: SEC-SAXS; MBP-2rNT alone, SWING beamline, HPLC mode.
The target of data set [7] is rat Arc C-terminal domain as found in the crystals grown from FLrArc-7A (rArc-CTD) (rat, UniProt Q63053).

B1: full-length human Arc (FLhArc), capsid-containing preparation (natural protein, UniProt Q7LC44 1-396, looked up)
chain: MELDHRTSGGLHAYPGPRGGQVAKPNVILQIGKCRAEMLEHVRRTHRHLLAEVSKQVERELKGLHRSVGKLESNLDGYVPTSDSQRWKKSIKACLCRCQETIANLERWVKREMHVWREVFYRLERWADRLESTGGKYPVGSESARHTVSVGVGGPESYCHEADGYDYTVSPYAITPPPAAGELPGQEPAEAQQYQPWVPGEDGQPSPGVDTQIFEDPREFLSHLEEYLRQVGGSEEYWLSQIQNHMNGPAKKWWEFKQGSVKNWVEFKKEFLQYSEGTLSREAIQRELDLPQKQGEPLDQFLWRKRDLYQTLYVDADEEEIIQYVVGTLQPKLKRFLRHPLPKTLEQLIQRGMEVQDDLEQAAEPAGPHLPVEDEAETLTPAPNSESVASDRTQPE
notes: Activity-regulated cytoskeleton-associated protein (Arc), human, full length, without any mutations; High-molecular-weight forms and capsids with nucleic acid content (260/280 ratio >1); also called capsid hArc; wild-type full length hArc; source: E. coli BL21 CodonPlus, purified (NiNTA, TEV cleavage, Talon)
Turning to B1, the binding result in data set [1] is reported as “binds”.

B2: NbArc-H11 (VHH)
VHH: EVQLLESGGGLVQAGDSLRLSCAASGRTFSAYAMGWFRQAPGKEREFVAAISWSGNSTYYADSVKGRFTISRDNAKNTVYLQMNSLKPEDTAIYYCAARKPMYRVDISKGQNYDYWGQGTQVTVSS
notes: From NanoTag Technologies, His6-TEV-Nb in pNT1433; long CDR3 with a P-x-Y motif (Pro103, Tyr105); also called Nb H11; sdAb H11; source: E. coli BL21(DE3), purified (NiNTA, TEV proteolysis, SEC); not shown: His6, N-terminal, cleaved
As for B2, the “stoichiometry N” value in data set [2] came to 1.

B3: stargazin (Stg) peptide (peptide)
peptide: Ac-RIPSYRYR-NH2
notes: peptide from the cytosolic tail of stargazin (Stg), auxiliary subunit of AMPA receptors
Take B3: in data set [3], binding was characterised by a dissociation constant (Kd) of 34.9 µM, the dH was -9.2 kcal/mol and the “stoichiometry N” value turned out to be 1.09.

B4: NbArc-B12 (VHH)
VHH: EVQLLESGGGLVQAGGSLRLSCVASRGPFTTVTMGWYRQTPGKQRESVAHITSDGRANYADSVKGRFTISKDNATNTVYLQMNNLKREDTAVYYCNTIVWPRGPWGQGTQVTVSS
notes: From NanoTag Technologies, His6-TEV-Nb in pNT1433; also called sdAb B12; source: E. coli BL21(DE3), purified (NiNTA, TEV proteolysis, SEC); not shown: His6, N-terminal, cleaved
Regarding B4, in data set [2], the “stoichiometry N” value is 1.

B5: E5 [NbArc-E5] (VHH)
VHH: EVQLQESGGGLVQAGGSLRLSCAASGSIFSGNAMGWYRQAPGKQREVVAVISAGNSSNYVDSVKGRFTISRDNAKNTVYLQMNSLKPEDTAVYYCNVVKRGPQWGMEWGKGTLVTVSS
As for B5, the binding result in data set [4] was “binds”.

B6: NbArc-E5 (VHH)
VHH: EVQLQESGGGLVQAGGSLRLSCAASGSIFSGNAMGWYRQAPGKQREVVAVISAGNSSNYVDSVKGRFTISRDNAKNTVYLQMNSLKPEDTAVYYCNVVKRGPQWGMEWGKGTLVTVSS
notes: From NanoTag Technologies, His6-TEV-Nb in pNT1433; also called Nb E5; sdAb E5; source: E. coli BL21(DE3), purified (NiNTA, TEV proteolysis, SEC); not shown: His6, N-terminal, cleaved
As to B6, the “stoichiometry N” value in data set [2] came out at 1.

B7: NbArc-B5 (VHH)
VHH: EVQLQESGGGLVEAGGSLRLSCAASGHTSSTVNMAWYRQAPGKEREWVARVFWTDGATYYSDSVKGRFTISRDNTKQRVNLQMNNLKPEDTAIYYCALRAPSSQRLYWGQGTQVTVSS
notes: From NanoTag Technologies, His6-TEV-Nb in pNT1433; also called sdAb B5; source: E. coli BL21(DE3), purified (NiNTA, TEV proteolysis, SEC); not shown: His6, N-terminal, cleaved
On to B7, for which the “stoichiometry N” value in data set [2] is 1.

As to B8, in data set [5], the “stoichiometry N” value worked out at 2.

B9: MBP-2rNT, N-terminal domain of rat Arc (residues 24-137) with the poly-Ala mutation, fused to His6-MBP (domain or fragment, UniProt Q63053 24-137, looked up)
chain: KPNVILQIGKCRAEMLEHVRRTHRHLLTEVSKQVERELKGLHRSVGKLENNLDGYVPTGDSQRWKKSIKACLCRCQETIANLERWVKREAAAAAAAFYRLERWADRLESMGGKY
notes: Insoluble without the MBP fusion partner; dimer by SAXS; also called NTD; rArc-NTD; source: E. coli BL21(DE3)-RIPL, purified (details in S1 Protocol); not shown: His6, N-terminal, kept; MBP, N-terminal, kept
Consider B9, for which the “stoichiometry N” value in data set [6] was 2.

B10: C11 [NbArc-C11] (VHH)
VHH: EVQLVESGGGLVQAGGSLRLSCAASGRTSGALNVAWYRQATGKEREYVARLWWNDGTTYYSDSVKGRFTISSDNAKKIVYLQMNRLKPDDTAIYYCAVRTPSSQTLYWGQGTQVTVSS
Regarding B10, in data set [7], the binding result is “binds”.

B11: NbArc-C11 (VHH)
VHH: EVQLVESGGGLVQAGGSLRLSCAASGRTSGALNVAWYRQATGKEREYVARLWWNDGTTYYSDSVKGRFTISSDNAKKIVYLQMNRLKPDDTAIYYCAVRTPSSQTLYWGQGTQVTVSS
notes: From NanoTag Technologies, His6-TEV-Nb in pNT1433; also called Nb C11; sdAb C11; source: E. coli BL21(DE3), purified (NiNTA, TEV proteolysis, SEC); not shown: His6, N-terminal, cleaved
As to B11, in data set [2], the “stoichiometry N” value was 1.

B12: NbArc-D4 (VHH)
VHH: EVQLVESGGGLVQAGGSLRLSCVASRGPFTTVTMGWYRQTPGRGRELVATINGGGGTRYADSVKGRFTISTDNAKNTVSLQMNSLKPEDTAVYYCNNDGYEWGVKKTYWGQGTQVTVSS
notes: From NanoTag Technologies, His6-TEV-Nb in pNT1433; also called sdAb D4; source: E. coli BL21(DE3), purified (NiNTA, TEV proteolysis, SEC); not shown: His6, N-terminal, cleaved
Turning to B12, the “stoichiometry N” value in data set [2] amounted to 1.

A word on the stoichiometry N: it is the number of molecules, sites or subunits per partner or assembly. Broadly, the Kd is a measure of binding affinity in units of concentration. High values mean lower affinity, low ones higher affinity.
